# In US6475768B1 (Forskarpatent I Syd AB, priority 2000, dated 2002):
# Substitutions are numbered along the chain they refer to. Names and notes keep the numbering of the source.
# T1: Thermus thermophilus xylose isomerase, wild type (nucleic acid sequence SEQ ID NO: 2) (Thermus thermophilus, UniProt P26997)
# T1 sequence (P26997 1-387): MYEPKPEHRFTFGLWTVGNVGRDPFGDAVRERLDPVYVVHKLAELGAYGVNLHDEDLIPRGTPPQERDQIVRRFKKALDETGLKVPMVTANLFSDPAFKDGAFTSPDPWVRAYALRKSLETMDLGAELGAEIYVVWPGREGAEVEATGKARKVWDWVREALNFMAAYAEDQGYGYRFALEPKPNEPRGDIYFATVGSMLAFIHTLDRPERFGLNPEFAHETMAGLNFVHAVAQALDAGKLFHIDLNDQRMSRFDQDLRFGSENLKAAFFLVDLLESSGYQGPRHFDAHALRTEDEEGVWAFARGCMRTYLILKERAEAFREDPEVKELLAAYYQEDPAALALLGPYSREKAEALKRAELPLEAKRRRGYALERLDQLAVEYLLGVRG
# T2: Thermus thermophilus xylose isomerase (xylA), mutant 1021 (M1021) (Thermus thermophilus, UniProt P26997, E372G/V379A)
# T2 construct: made in house; host or cells: E. coli HB101 (crude lysate)
# T2 sequence (P26997 1-387 E372G/V379A): T1 sequence (P26997 1-387) with E372G, V379A
# T3: Thermus thermophilus xylose isomerase (xylA), mutant 1026 (M1026) (Thermus thermophilus, UniProt P26997, E372G)
# T3 construct: made in house; host or cells: E. coli HB101 (crude lysate)
# T3 sequence (P26997 1-387 E372G): T1 sequence (P26997 1-387) with E372G
# T4: Thermus thermophilus xylose isomerase (xylA), mutant 1024 (M1024) (Thermus thermophilus, UniProt P26997, E372G/F163L)
# T4 construct: made in house; host or cells: E. coli HB101 (crude lysate)
# T4 sequence (P26997 1-387 F163L/E372G): T1 sequence (P26997 1-387) with F163L, E372G
# B1: Thermus thermophilus xylose isomerase (xylA), mutant 1021 (M1021) (Thermus thermophilus HB8; E372G/V379A) (protein)
# chain: T1 sequence (P26997 1-387) with E372G, V379A
# notes: made in house; host or cells: E. coli HB101 (crude lysate)
# B2: Thermus thermophilus xylose isomerase (xylA), mutant 1024 (M1024) (Thermus thermophilus HB8; E372G/F163L) (protein)
# chain: T1 sequence (P26997 1-387) with F163L, E372G
# notes: as for B1
# B3: Thermus thermophilus xylose isomerase, wild type (nucleic acid sequence SEQ ID NO: 2) (Thermus thermophilus HB8) (protein)
# chain: T1 sequence (P26997 1-387)
# Key:
# [1] = biological target: T1, Thermus thermophilus xylose isomerase, wild type (nucleic acid sequence SEQ ID NO: 2); assay: biochemical
# [2] = biological target: Thermus thermophilus xylose isomerase (xylA), mutant 1010 (M1010) (Thermus thermophilus, UniProt P26997); assay type: biochemical
# Method: (§1) The cells were harvested by centrifugation in the stationary phase of growth and washed once with ice cold distilled water. Washed cells were resusprended in 100 mM triethanolamine, pH 7.0, 0.5 mg/ml lysozyme (130000 U/mg), 0.25 mg/ml DNase, and 1 mM phenylmethylsulphonyl fluoride (PMSF) in dimethylsulfoxide (DMSO). The suspensions were kept at room temperature for one hour and then on ice for two hours before being put in a freezer at −20° C. The cell lysates were thawed on ice, cell debris was removed by centrifugation (1300 rpm for 15 minutes at 4° C.) and the supernatants were used as the crude enzyme preparations.
# (§2) Protein concentration was determined with the Bradford method (Bradford (1976)) using the Pierce protein reagent with bovine serum albumin as standard.
# (§3) The reaction was terminated after 10 minutes by adding 150 μl 50% trichloroaceticacid. The reaction mixture was neutralized with 185 μl 2 M Na2CO3. The formed xylulose or fructose was measured on a COBAS MIRA (Roche) automated spectrophotometer via enzymatic reduction with 0.04 or 0.5 units of Sorbitol Dehydrogenase (purchased from Roche), respectively in the presence of 0.15 mM NADH at pH 7.0, 37° C. in 200 μl reaction volume. The rate of disappearance of NADH was followed at 340 nm and the concentration of D-xylulose or D-fructose was calculated using calibration curves. […] The specific activity (U min^−1 mg^−1) was determined from the activity and the protein concentration of the crude enzyme preparations.
# (§4) The kinetic parameters Vmax (μmol min^−1 mg^−1) and Km (mM) were determined from Michaelis-Menten plots of specific activities at various substrate concentrations by nonlinear regression analysis with Sigma Plot (SSPS Inc.) software. Typically, duplicate measurements were used to determine the Km value at 6-10 concentrations of the substrate, with a concentration range covering the value of Km.
# [3] = biological target: T2, Thermus thermophilus xylose isomerase (xylA), mutant 1021 (M1021); assay: Kinetic characterisation of mutant xylose isomerase 1021 (xylose/glucose isomerase activity, xylitol inhibition); assay type: biochemical
# Method: as §1, §2
# (§5) The reaction was terminated after 10 minutes by adding 150 μl 50% trichloroaceticacid. The reaction mixture was neutralized with 185 μl 2 M Na2CO3. The formed xylulose or fructose was measured on a COBAS MIRA (Roche) automated spectrophotometer via enzymatic reduction with 0.04 or 0.5 units of Sorbitol Dehydrogenase (purchased from Roche), respectively in the presence of 0.15 mM NADH at pH 7.0, 37° C. in 200 μl reaction volume. The rate of disappearance of NADH was followed at 340 nm and the concentration of D-xylulose or D-fructose was calculated using calibration curves. […]
# [4] = biological target: Thermus thermophilus xylose isomerase mutants (1010, 1021, 1024, 1026); assay: Inhibition constant for xylitol, mutants compared to wildtype; assay type: biochemical; details: the mutants compared to the wildtype enzyme, xylose 20-400 mM
# Method: as §1
# as §3, with “preparations. […]” for “preparations.”
# [5] = biological target: T3, Thermus thermophilus xylose isomerase (xylA), mutant 1026 (M1026); assay: Kinetic characterisation of mutant xylose isomerase 1026 (xylose/glucose isomerase activity, xylitol inhibition); assay type: biochemical; details: mutant 1026, crude enzyme, 10 mM MnCl2, pH 7.0
# Method: as §1, §2, §5
# [6] = biological target: T1, Thermus thermophilus xylose isomerase, wild type (nucleic acid sequence SEQ ID NO: 2); details: crude enzyme, 10 mM MnCl2, pH 7.0
# [7] = biological target: T4, Thermus thermophilus xylose isomerase (xylA), mutant 1024 (M1024); assay: Kinetic characterisation of mutant xylose isomerase 1024 (xylose/glucose isomerase activity, xylitol inhibition); assay type: biochemical; details: mutant 1024, crude enzyme, 10 mM MnCl2, pH 7.0
# Method: as §1, §2, §5
# [8] = substrate: OC1OC[C@@H](O)[C@H](O)[C@H]1O; assay: cells, lysate or membranes named; assay type: biochemical, Thermus thermophilus; details: 10 mM MnCl2, pH 7.0
# Method: as §1, §2
# as §3, with “preparations. […] The temperature optimum for the mutants were roughly the same as for the wild type enzyme except for mutant 1021, which had ˜10° C. lower temperature optimum.” for “preparations.”
# as §4
# [9] = substrate: OC[C@H]1OC(O)[C@H](O)[C@@H](O)[C@@H]1O; assay: cells, lysate or membranes named; assay type: biochemical, Thermus thermophilus; details: other: mutant 1021, crude enzyme, 10 mM MnCl2, pH 7.0
# Method: as §1, §2
# as §3, with “preparations. […] The temperature optimum for the mutants were roughly the same as for the wild type enzyme except for mutant 1021, which had ˜10° C. lower temperature optimum.” for “preparations.”
# as §4
# [10] = substrate: OC1OC[C@@H](O)[C@H](O)[C@H]1O; assay: cells, lysate or membranes named; details: other: wild type, crude enzyme, 10 mM MnCl2, pH 7.0
# [11] = cited from earlier work
# [12] = Effect of different bivalent cations on the activity of EDTA treated enzymes; assay type: biochemical; details: EDTA treated enzyme, activity with 10 mM MnCl2 at 60° C. set to 100%
# Method: Furthermore, the effect of different bivalent cations (10 mM) on the activity of EDTA treated enzymes was investigated. The specific activity with 10 mM MnCl2 at 60° C. was set to 100% for each enzyme.
# [13] = Xylose isomerase activity assay of crude enzyme preparations from E. coli HB101; assay type: biochemical
# Method: The cells were harvested by centrifugation in the stationary phase of growth and washed once with ice cold distilled water. […] The suspensions were kept at room temperature for one hour and then on ice for two hours before being put in a freezer at −20° C. The cell lysates were thawed on ice, cell debris was removed by centrifugation (1300 rpm for 15 minutes at 4° C.) and the supernatants were used as the crude enzyme preparations. Protein concentration was determined with the Bradford method (Bradford (1976)) using the Pierce protein reagent with bovine serum albumin as standard. […] The reaction mixture was neutralized with 185 μl 2 M Na2CO3. […] The rate of disappearance of NADH was followed at 340 nm and the concentration of D-xylulose or D-fructose was calculated using calibration curves. […] The specific activity (U min^−1 mg^−1) was determined from the activity and the protein concentration of the crude enzyme preparations.
# [14] = Effect of pH on the activity of the enzymes; assay type: biochemical; details: 60° C., 700 mM D-xylose, 10 mM MnCl2, pH range 5-10
# Method: The effect of pH on the activity of the enzymes was followed in the pH range 5-10 in a buffer prepared by mixing acetate, piperazine-N,N'-bis-(2-ethanolsulphonic acid) (PIPES), […] (HEPES) and glycine at final concentration 50 mM each as described by (Dekker at al. (1992) Appl. Mirobiol. Biotechnol. 36: 727-732). The pH was adjusted at 60° C. with NaOH.
# [15] = mutant 1010, crude enzyme, 10 mM MnCl2, pH 7.0
# [16] = other: mutant 1021, crude enzyme
# [17] = other: mutant 1024, crude enzyme
molecule,measurement,setting,value
OC[C@@H](O)[C@H](O)[C@@H](O)CO [xylitol],Ki,[1],4.6 mM
same,Ki,"[2]; read-out: Ki xylitol, mutant 1010, xylose 20-400 mM, fixed xylitol concentrations",10.1 mM
same,Ki,[3],33.2 mM
same,Ki for xylitol,[4],higher Ki for xylitol
OC[C@H]1OC(O)[C@H](O)[C@@H](O)[C@@H]1O (stereo partly drawn) [glucose],Vmax glucose,[5],0.18 µmol/min/mg
same,Vmax glucose,[6],0.015 µmol/min/mg
same,Vmax glucose,[7],0.54 µmol/min/mg
same,Vmax glucose,[2]; [15],0.0034 µmol/min/mg
"OC1OC[C@@H](O)[C@H](O)[C@H]1O (stereo partly drawn) [xylose, D-xylose]",Vmax xylose,[2]; [15],0.44 µmol/min/mg
same,Km,"[2]; read-out: Km xylose, mutant 1010, crude enzyme, 10 mM MnCl2, pH 7.0",16.6 ± 2.2 mM
B1,Km,[8]; [16],25.1 ± 4.0 mM
same,Vmax,[8]; [16],0.84 µmol/min/mg
same,Km,[9],52.0 ± 4.9 mM
same,Vmax,[9],0.13 µmol/min/mg
B2,Km,[8]; [17],89.4 ± 8.4 mM
same,Vmax,[8]; [17],3.08 µmol/min/mg
B3,Km,[10],3.44 ± 0.4 mM
same,Vmax,[10],0.043 µmol/min/mg
same,activity at 30° C.,[11],only trace activity
same,Co^2+ (% relative activity),[12]; 10 mM Co2+,87.9%
same,Mg^2+ (% relative activity),[12]; 10 mM Mg2+,73.8%
same,Vmax at 30° C.,"[13]; 30° C., 700 mM D-xylose, 10 mM MnCl2, pH 7.0, crude enzyme",0.014 μmol/min^−1mg^−1
same,Temp. optimum,"[13]; xylose as substrate, pH 7.0",85 °C
same,pH optimum,[14],6-7.5
